Reference: paper doi:10.1101/2024.09.21.614250 (bioRxiv, 2024)
One block for each binder: values may come before it.

Experiments:
[1] = molecular target: T1, Shp2^tSH2 (aa5-218), C-terminally SNAP-tag-fused, SC505-labeled (human, UniProt Q06124 5-218, Snap-Cell505 star (SC505) label on the SNAP-tag); assay: FRET or BRET
T1 sequence: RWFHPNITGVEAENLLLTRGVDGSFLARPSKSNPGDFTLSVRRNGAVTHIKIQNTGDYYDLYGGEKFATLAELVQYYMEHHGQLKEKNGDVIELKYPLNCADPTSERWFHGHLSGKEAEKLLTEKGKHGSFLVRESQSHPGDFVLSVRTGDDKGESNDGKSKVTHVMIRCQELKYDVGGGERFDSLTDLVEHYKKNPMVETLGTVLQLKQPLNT

[2] = molecular target: T2, Shp1^tSH2 (aa4-215), C-terminally SNAP-tag-fused, SC505-labeled (human, UniProt P29350 4-215, Snap-Cell505 star (SC505) label on the SNAP-tag); assay: FRET or BRET
T2 sequence: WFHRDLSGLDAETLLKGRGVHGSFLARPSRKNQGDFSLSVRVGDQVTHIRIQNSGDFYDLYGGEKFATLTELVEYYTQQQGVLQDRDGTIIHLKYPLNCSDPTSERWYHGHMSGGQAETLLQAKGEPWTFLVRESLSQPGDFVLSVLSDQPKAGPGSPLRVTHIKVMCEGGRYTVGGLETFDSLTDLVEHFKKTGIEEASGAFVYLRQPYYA

- Kd [1]: 76 nM
- binding result [2]: binds
B1: His-tagged huPD1 ICD WT, phosphorylated by Lck (domain or fragment)
chain: CSRAARGTIGARRTGQPLKEDPSAVPVFSVDYGELDFQWREKTPEPPVPCVPEQTEYATIVFPSGMGTSSPARRGSADGPRSAQPLRPEDGHCSWPL
modifications: phosphorylated by Lck on the LUV after ATP addition (sites not stated for this assay)

- Kd [1]: 220 nM
- binding result [2]: binds
B2: His-tagged moPD1 ICD WT, phosphorylated by Lck (domain or fragment)
chain: CSTSMSEARGAGSKDDTLKEEPSAAPVPSVAYEELDFQGREKTPELPTACVHTEYATIVFTEGLGASAMGRRGSADGLQGPRPPRHEDGHCSWPL
modifications: phosphorylated by Lck on the LUV after ATP addition (sites not stated for this assay)
